One series deals with S. cerevisiae ΔOLE1. The experiment in a line: ΔOLE1 growth complementation assay without UFA. The class given is cell-based, Saccharomyces cerevisiae. The source says:
S. cerevisiae ΔOLE1 (MATA OLE1::LEU2 ura3-52 his4) was used as an expression host. A synthetic expression cassette termed pOLE1 (FIG. 10, SEQ ID NO: 4) which comprises the OLE1 promoter region (SEQ ID NOs: 5 and 6), nucleotides encoding for 27 N-terminal amino acids of the OLE1 leader sequence (SEQ ID NO: 7), and a VPS13 terminator sequence (SEQ ID NO: 8) was created, and cloned into pESC-URA vector in between SacI and EcoRI sites. To test the functionality of the pOLE1 cassette, Dasher GFP synthon was inserted in between SpeI and NotI sites to create pOLE1-GFP plasmid. Competent ΔOLE1 was transformed with pOLE1-GFP, and plated on CM-Ura glucose agar plate (Teknova) containing UFA (20 mm CM-URA glucose agar plate was coated with 100 μL CM-Ura glucose medium containing 1% tergitol, and 3 μL palmitoleic acid). […] Validation of ΔOLE1 complementation was performed by restoring OLE1 activity. Specifically, native S. cerevisiae OLE1 synthon was inserted into pOLE1 cassette devoid of the leader sequence to create pOLE1-OLE1 plasmid. After transformation of ΔOLE1, and selection on CM-Ura glucose agar containing UFA, single colonies were patched onto YPD and CM-Ura glucose without UFA. After incubation at 30° C. for 5 days, growth was observed (FIG. 11A-FIG. 11E). As expected, Dasher GFP expression could not complement ΔOLE1 growth without UFA (FIG. 11A-FIG. 11E). DNA sequences which encode for desaturase variants were synthesized (to include nucleotide changes which remove restriction sites used for cloning purposes), and cloned into pOLE1 using SpeI-NotI sites (Genscript, SEQ ID NOs: 9-13). Complementation assay of ΔOLE1 with insect desaturases were performed in the same way as with OLE1 desaturase.

A further series deals with palmitic acid. In words: in vivo bioconversion assay of desaturases in C. tropicalis SPV053. The class given is cell-based, Candida tropicalis. As for the experimental part: Functional expression of the heterologous desaturases was characterized by a series of in vivo bioconversion experiments. C. tropicalis SPV053 derived stains expressing insect desaturases were cultured in rich (YPD) or defined (CM glucose) media supplemented with ethanol (for induction) and saturated acid substrates (palmitic acid, methyl palmitate, methyl myristate). Small scale (2 ml) cultures were cultivated for a total of 72 hours in 24 deep well plates with substrate added after the initial 24 hours.
Positive isolates were re-patched onto YPD+300 μg/ml Zeocin and grown overnight and then stored at 4° C. Strains were inoculated from patch plates into 2 ml of YPD in 24 deep well plates (square well, pyramid bottom). Three positive clones were inoculated for each desaturase variant and the mCherry expressing control strain. Deep well plates were incubated at 30° C., 1000 rpm, and 80% humidity in the Infors HT Multitron Pro plate shaker for 24 hrs. After 24 hrs of incubation, cultures were split into equal 1 ml volumes to make two sets of identical plates. Both sets of plates were pelleted by centrifugation at 500×g. One set of plates was resuspended in 2 ml of YPD+0.3% (v/v) ethanol and the second set was resuspended in 2 ml of CM glucose+0.3% ethanol. Ethanol was added at this stage to induce recombinant enzyme expression from the ICL promoter. Cultures were incubated for another 24 hours under the same conditions before 300 mg/L palmitic acid was added to cultures from a 90 g/L stock solution in ethanol. The result was the addition of a fresh 0.3% ethanol in conjunction with the palmitic acid. A subset of strains was also cultured without palmitic acid addition. These cultures had 0.3% ethanol added instead. All cultures were incubated for an additional 24 hrs before a final addition of 0.3% ethanol. After another 24 hr period of incubation, 1.5 ml of each culture was harvested in 1.7 ml microcentrifuge tubes and pelleted. Supernatant was saved in fresh tubes and pellets were processed as described below. A subset of supernatant samples was also extracted to look for free acid in the extracellular medium.
The mCherry control and confirmed positive variants were rescreened using both palmitic acid and methyl palmitate as substrates. The culturing was conducted as described above with equimolar (1.17 mM) amounts of substrate added from ethanol stock solutions (methyl palmitate 94 g/L stock, 313 mg/L final concentration). The same protocol was also repeated with the full panel of strains using an 84 g/L stock of methyl myristate (C14:0). The final concentration of substrate was again 1.17 mM.
The in vivo bioconversion assay was scaled up for confirmation of (Z)-11-hexadecenoic acid synthesis. 2 ml YPD seed cultures of strains SPV0302, SPV0303, and SPV0304 (mCherry), […], SPV0305, and SPV0306 (A. transitella Z11 desaturase), and SPV0307, SPV0308, and SPV0309 (H. zea Z11 desaturase) were grown overnight at 30° C., 1000 rpm, 80% humidity in the Infors HT Multitron plate shaker. 200 μl of overnight culture from each of the three clonal isolates was pooled and inoculated into a single 125 ml baffled flask containing 20 ml YPD. The resulting three flasks were grown for 24 hrs at 30° C. and 250 rpm (Infors Flask shaker). Cultures were pelleted by centrifugation at 500×g and resuspended in 20 ml of YPD+0.3% (v/v) ethanol and returned to 125 ml baffled shake flasks. Cultures were incubated for an additional 24 hours before addition of 300 mg/L palmitic acid in a 90 g/L stock in ethanol (221 μl per flask). After 24 hours of incubation another 0.3% (v/v) ethanol (221 μl) was added to each flask for sustained induction. Flasks were incubated for an additional 24 hours before cells were harvested for FAME analysis and DMDS derivatization.
Total lipid composition as well as the (Z)-11-hexadecenoic acid quantification was based on modified procedures by Moss et al. (1982) and Yousuf et al (2010). […]

The next series deals with methyl palmitate. In words: HaFAR mutant library cultivation in 24 well plates in Y. lipolytica SPV603. The format is cell-based, Yarrowia lipolytica. To be noted: second FAR copy in SPV603, 24 well plates. The method, then: Four individual clones of positive integrants were tested. Cultivation was performed in 24 well plates. Briefly, 2 mL YPD was inoculated from patches of individual clones and incubated for 24 h at 28° C., 1000 rpm. After 24 h OD600 was measured and the cells were centrifuged at 1000 rpm (Table 23). The cell pellets were resuspended in 1 mL S2 media and 10 g/L methyl palmitate was added. The cells were incubated for 18 h at 28° C., 1000 rpm. Cultivations were stored at −20° C. until analyzed. Extraction and analysis was performed according to previously established standard protocols using GC-FID.
In a first round four individual isolate from each transformation was tested. Cultivation was performed in 24 well plates. 2 mL YPD was inoculated from patches of individual clones and incubated for 24 h at 28° C., 1000 rpm. After 24 h OD600 was measured and the cells were centrifuged at 1000 rpm. The cell pellets were resuspended in 1 mL S2 media and 10 g/L methyl palmitate was added. The cells were incubated for 24 h at 28° C., 1000 rpm. Cultivations were stored at −20° C. until analyzed. Next, four clones of the best performing positive integrant were tested. Cultivation was performed in 24 well plates. 2 mL YPD was inoculated from patches of individual clones and incubated for ˜28 h at 28° C., 1000 rpm. After 28 h OD600 was measured and the cells were centrifuged at 1000 rpm. The cell pellets were resuspended in 1 mL S2 media and 10 g/L methyl palmitate was added. The cells were incubated for 18 h at 28° C., 1000 rpm. Cultivations were stored at −20° C. until analyzed.
Cell pellets were resuspended with 500 μL 5% NaOH (in methanol) then heated for 1 hour at 85° C. Samples were cooled down and then acidified by adding 400 μL 5N HCl. Next, 500 μL chloroform (containing 1 mM C17:0 heptadecanoate internal standard) were added to samples. Samples were mixed vigorously then spun down for 2 minutes at 13,000 RPM using a table top centrifuge. 450 μL chloroform were transferred to a new vial then evaporated at 85° C. for ˜15 minutes. Samples were then resuspended in 50 μL BSTFA (and were now ready for GC analysis). After analysis of the fatty alcohols samples were diluted ˜1:10 and rerun on the GC to improve peak separation of the fatty acid peaks.
All quantifications were based on the concentration of the internal standard. The concentration of the internal standard C17ME is 1 mM. The final concentration of fatty alcohols as well as fatty acids were calculated based on the effective carbon number compared to the internal standard.

The mark [1] stands for this setting: SPV053, supplementation not stated.

B1: A. transitella desaturase: Amyelois transitella Z11 desaturase (JX964774) (protein, listed as Amyelois transitella)
chain: MVPNKGSSDVLSEHSEPQFTKLIAPQAGPRKYKIVYRNLLTFGYWHLSAVYGLYLCFTCAKWATILFAFFLYVIAEIGITGGAHRLWAHRTYKAKLPLEILLLIMNSIAFQDTAFTWARDHRLHHKYSDTDADPHNATRGFFYSHVGWLLVKKHPEVKARGKYLSLDDLKNNPLLKFQKKYAILVIGTLCFLMPTFVPVYFWGEGISTAWNINLLRYVMNLNMTFLVNSAAHIFGNKPYDKSIASVQNISVSLATFGEGFHNYHHTYPWDYRAAELGNNRLNMTTAFIDFFAWIGWAYDLKSVPQEAIAKRCAKTGDGTDMWGRKR
As to B1, the “rescue of ΔOLE1 growth without UFA” value with S. cerevisiae ΔOLE1 (minimal medium (CM-Ura glucose) agar plate) was “conferred growth without UFA”. For the same molecule, the “rescue of ΔOLE1 growth without UFA” value in the series with S. cerevisiae ΔOLE1 (rich medium (YPD) agar plate) is on record as “conferred growth without UFA”. In addition, the “(Z)-11-hexadecenoic acid titer” value with palmitic acid (SPV053) is reported as “approximately 5.62 mg/L”. For the same molecule, in the series with palmitic acid (SPV053, methyl myristate substrate), the “activity on myristoyl-CoA” value is “some activity on myristoyl-CoA”. Besides, in the series with palmitic acid (setting [1]), the “(Z)-9-hexadecenoic acid in C16-fatty acid composition” value worked out at 14.5%, the “(Z)-11-hexadecenoic acid in C16-fatty acid composition” value came to 30.0% and the “hexadecanoic acid in C16-fatty acid composition” value is reported as 55.5%.

B2: HaFAR (S60A) (protein)
chain: MVVLTSKETKPSVAEFYAGKSVFITGGTGFLGKVFIEKLLYSCPDIENIYMLIREKKGLAVSERIKQFLDDPLFTRLKDKRPADLEKIVLIPGDITAPDLGINSENEKMLIEKVSVIIHSAATVKFNEPLPTAWKINVEGTRMMLALSRRMKRIEVFIHISTAYTNTNREVVDEILYPAPADIDQVHQYVKDGISEEDTEKILNGRPNTYTFTKALTEHLVAENQAYVPTIIVRPSVVAAIKDEPLKGWLGNWFGATGLTVFTAKGLNRVIYGHSSYIVDLIPVDYVANLVIAAGAKSSKSTELKVYNCCSSSCNPVTIGTLMSMFADDAIKQKSYAMPLPGWYIFTKYKWLVLLLTFLFQVIPAYVTDLSRHLIGKSPRYIKLQSLVNQTRSSIDFFTNHSWVMKADRVRELYASLSPADKYLFPCDPTDINWTHYIQDYCWGVRHFLEKKSYE
With B2, the “Z11-16OH titers compared to the HaFAR double copy strain” value with methyl palmitate is on record as “neutral or showed slight increases”.

B3: HaFAR (S453A) (protein)
chain: MVVLTSKETKPSVAEFYAGKSVFITGGTGFLGKVFIEKLLYSCPDIENIYMLIREKKGLSVSERIKQFLDDPLFTRLKDKRPADLEKIVLIPGDITAPDLGINSENEKMLIEKVSVIIHSAATVKFNEPLPTAWKINVEGTRMMLALSRRMKRIEVFIHISTAYTNTNREVVDEILYPAPADIDQVHQYVKDGISEEDTEKILNGRPNTYTFTKALTEHLVAENQAYVPTIIVRPSVVAAIKDEPLKGWLGNWFGATGLTVFTAKGLNRVIYGHSSYIVDLIPVDYVANLVIAAGAKSSKSTELKVYNCCSSSCNPVTIGTLMSMFADDAIKQKSYAMPLPGWYIFTKYKWLVLLLTFLFQVIPAYVTDLSRHLIGKSPRYIKLQSLVNQTRSSIDFFTNHSWVMKADRVRELYASLSPADKYLFPCDPTDINWTHYIQDYCWGVRHFLEKKAYE
Regarding B3, the “Z11-16OH titers compared to the HaFAR double copy strain” value with methyl palmitate is given as “neutral or showed slight increases”.

B4: HaFAR (S298A) (protein)
chain: MVVLTSKETKPSVAEFYAGKSVFITGGTGFLGKVFIEKLLYSCPDIENIYMLIREKKGLSVSERIKQFLDDPLFTRLKDKRPADLEKIVLIPGDITAPDLGINSENEKMLIEKVSVIIHSAATVKFNEPLPTAWKINVEGTRMMLALSRRMKRIEVFIHISTAYTNTNREVVDEILYPAPADIDQVHQYVKDGISEEDTEKILNGRPNTYTFTKALTEHLVAENQAYVPTIIVRPSVVAAIKDEPLKGWLGNWFGATGLTVFTAKGLNRVIYGHSSYIVDLIPVDYVANLVIAAGAKASKSTELKVYNCCSSSCNPVTIGTLMSMFADDAIKQKSYAMPLPGWYIFTKYKWLVLLLTFLFQVIPAYVTDLSRHLIGKSPRYIKLQSLVNQTRSSIDFFTNHSWVMKADRVRELYASLSPADKYLFPCDPTDINWTHYIQDYCWGVRHFLEKKSYE
Take B4: the “Z11-16OH titers compared to the HaFAR double copy strain” value in the series on methyl palmitate was “neutral or showed slight increases”.

Source of the values: patent US11866760B2, “Microorganisms for the production of insect pheromones and related compounds” (Provivi, Inc., priority 2017, dated 2024).
